Data as given in the supplement of paper PMC10567573.

B1: DLC1 (parent)
chain: KRSWEEHVTHWMGQPFNSDDRNTA
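Further: lentivirally expressed fusions sorted by FACS into six bins by GFP to DsRed ratio, PSI derived from sequencing read proportions per bin multiplied by bin number.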

Variants of: B1
Experiment: protein stability index of a GFP-peptide fusion (GPS, HEK-293T) (PSI 1-6); higher = more stable
Conditions: c terminus: a fixed tail appended
With KRSWEEHVTHWMGVPFNSDDRNTA the protein stability index was 3.15.
In the case of FRSWEEHVTHWMGQPFNSDDRNTA, the protein stability index is reported as 3.16.
ERSWEEHVTHWMGQPFNSDDRNTA showed a protein stability index of 4.15.
IRSWEEHVTHWMGQPFNSDDRNTA gave a protein stability index of 2.54.
Work on VRSWEEHVTHWMGQPFNSDDRNTA yielded a protein stability index of 2.95.
In the case of LRSWEEHVTHWMGQPFNSDDRNTA, the protein stability index is reported as 3.03.
Work on YRSWEEHVTHWMGQPFNSDDRNTA yielded a protein stability index of 2.81.
With TRSWEEHVTHWMGQPFNSDDRNTA the protein stability index was 3.35.
Variant GRSWEEHVTHWMGQPFNSDDRNTA has a protein stability index of 3.21.
In the case of SRSWEEHVTHWMGQPFNSDDRNTA, the protein stability index is reported as 3.46.
Work on MRSWEEHVTHWMGQPFNSDDRNTA yielded a protein stability index of 2.73.
Variant KRSLEEHVTHWMGQPFNSDDRNTA has a protein stability index of 3.45.
For KRSGEEHVTHWMGQPFNSDDRNTA, the protein stability index was 4.38.
KRSFEEHVTHWMGQPFNSDDRNTA gave a protein stability index of 4.09.
Work on KRSIEEHVTHWMGQPFNSDDRNTA yielded a protein stability index of 4.41.
In the case of KRSSEEHVTHWMGQPFNSDDRNTA, the protein stability index is reported as 4.32.
KRSHEEHVTHWMGQPFNSDDRNTA gave a protein stability index of 4.44.
In the case of KRSYEEHVTHWMGQPFNSDDRNTA, the protein stability index is reported as 4.08.
KRSDEEHVTHWMGQPFNSDDRNTA showed a protein stability index of 5.21.
KRSMEEHVTHWMGQPFNSDDRNTA gave a protein stability index of 3.95.
Variant KRSVEEHVTHWMGQPFNSDDRNTA has a protein stability index of 4.36.
With KRSCEEHVTHWMGQPFNSDDRNTA the protein stability index was 4.2.
In the case of KRSWEEHVTHWMGQPFNQDDRNTA, the protein stability index is reported as 3.02.
KRSWEEHVTHWMGQPFNEDDRNTA gave a protein stability index of 2.97.
KRSWEEHVTHWMGQPFNTDDRNTA gave a protein stability index of 3.21.
With KRSWEEHVTHWMGQPFNDDDRNTA the protein stability index was 3.1.
With KRSWEEHVTHWMGQPFNIDDRNTA the protein stability index was 2.61.
Variant KRSWEEHVTHWMGQPFNWDDRNTA has a protein stability index of 2.01.
KRSWEEHVTHWMGQPFNADDRNTA showed a protein stability index of 3.48.
Work on KRSWEEHVTHWMGQPFNFDDRNTA yielded a protein stability index of 2.27.
For KRSWEENVTHWMGQPFNSDDRNTA, the protein stability index was 4.35.
Work on KRSWEERVTHWMGQPFNSDDRNTA yielded a protein stability index of 3.08.
Variant KRSWEESVTHWMGQPFNSDDRNTA has a protein stability index of 3.71.
KRSWEEVVTHWMGQPFNSDDRNTA gave a protein stability index of 3.18.
KRSWEEMVTHWMGQPFNSDDRNTA showed a protein stability index of 2.84.
KRSWEEWVTHWMGQPFNSDDRNTA showed a protein stability index of 2.82.
Work on KRSWEEAVTHWMGQPFNSDDRNTA yielded a protein stability index of 3.54.
Variant KRSWEEKVTHWMGQPFNSDDRNTA has a protein stability index of 3.44.
For KRSWEECVTHWMGQPFNSDDRNTA, the protein stability index was 3.33.
KRSWEEYVTHWMGQPFNSDDRNTA showed a protein stability index of 2.29.
KRSWEEFVTHWMGQPFNSDDRNTA gave a protein stability index of 2.84.
Variant KRSWEEHVTHWMGQPFNSDDRNTV has a protein stability index of 3.28.
Work on KRSWEEHVTHWMGQPFNSDDRNTD yielded a protein stability index of 2.82.
Variant KRSWEEHVTHWMGQPFNSDDRNTL has a protein stability index of 2.89.
In the case of KRSWEEHVTHWMGQPFNSDDRNTF, the protein stability index is reported as 2.37.
In the case of KRSWEEHVTHWMGQPFNSDDRNTW, the protein stability index is reported as 2.6.
In the case of KRSWEEHVTHWMGQPFNSDDRNTE, the protein stability index is reported as 3.59.
For KRSWEEHVTHWMGQPFNSDDRNTH, the protein stability index was 2.9.
KRSWEEHVTHWMGQPFNSDDRNGA showed a protein stability index of 2.69.
KRSWEEHVTHWMGQPFNSDDRNNA showed a protein stability index of 2.74.
With KRSWEEHVTHWMGQPFNSDDRNMA the protein stability index was 1.73.
Variant KRSWEEHVTHWMGQPFNSDDRNSA has a protein stability index of 2.26.
In the case of KISWEEHVTHWMGQPFNSDDRNTA, the protein stability index is reported as 2.71.
Variant KVSWEEHVTHWMGQPFNSDDRNTA has a protein stability index of 3.26.
For KQSWEEHVTHWMGQPFNSDDRNTA, the protein stability index was 3.11.
Variant KASWEEHVTHWMGQPFNSDDRNTA has a protein stability index of 3.11.
In the case of KLSWEEHVTHWMGQPFNSDDRNTA, the protein stability index is reported as 3.28.
KYSWEEHVTHWMGQPFNSDDRNTA gave a protein stability index of 3.25.
KPSWEEHVTHWMGQPFNSDDRNTA showed a protein stability index of 3.37.
KRSWEEHVTHWMGQPFNSDDRVTA showed a protein stability index of 2.49.
Variant KRSWEEHVTHWMGQPFNSDDRQTA has a protein stability index of 2.67.
Variant KRSWEEHVTHWMGQPFNSDDRFTA has a protein stability index of 2.04.
Variant KRSWEEHVTHWMGQPFNSDDRHTA has a protein stability index of 2.04.
Variant KRSWEEHVTHWMGQPFNSDDRPTA has a protein stability index of 2.73.
For KRSWEEHVTHWMGQPFNSDDRETA, the protein stability index was 2.56.
With KRSWEEHVTHWMGQPFNSDDRITA the protein stability index was 2.12.
KRMWEEHVTHWMGQPFNSDDRNTA gave a protein stability index of 3.35.
For KRWWEEHVTHWMGQPFNSDDRNTA, the protein stability index was 3.
Work on KRLWEEHVTHWMGQPFNSDDRNTA yielded a protein stability index of 3.37.
In the case of KRIWEEHVTHWMGQPFNSDDRNTA, the protein stability index is reported as 3.78.
KRRWEEHVTHWMGQPFNSDDRNTA showed a protein stability index of 3.34.
Work on KRGWEEHVTHWMGQPFNSDDRNTA yielded a protein stability index of 3.44.
In the case of KRVWEEHVTHWMGQPFNSDDRNTA, the protein stability index is reported as 3.94.
Variant KRPWEEHVTHWMGQPFNSDDRNTA has a protein stability index of 3.6.
KRSWEEHVTHWMGQPFNSDCRNTA showed a protein stability index of 2.19.
KRSWEEHVTHWMGQPFNSDMRNTA gave a protein stability index of 1.91.
KRSWEEHVTHWMGQPFNSDSRNTA gave a protein stability index of 1.91.
Variant KRSWEEHVTHWMGQPFNSDGRNTA has a protein stability index of 2.43.
With KRSWEEHVTHWMGQPFNSDARNTA the protein stability index was 3.41.
For KRSWEGHVTHWMGQPFNSDDRNTA, the protein stability index was 3.48.
KRSWETHVTHWMGQPFNSDDRNTA showed a protein stability index of 3.15.
KRSWECHVTHWMGQPFNSDDRNTA gave a protein stability index of 2.87.
Work on KRSWELHVTHWMGQPFNSDDRNTA yielded a protein stability index of 2.58.
Variant KRSWEAHVTHWMGQPFNSDDRNTA has a protein stability index of 2.72.
KRSWEHHVTHWMGQPFNSDDRNTA showed a protein stability index of 3.36.
With KRSWEFHVTHWMGQPFNSDDRNTA the protein stability index was 2.27.
With KRSWEEHVTHWMGQIFNSDDRNTA the protein stability index was 1.56.
Work on KRSWEEHVTHWMGQVFNSDDRNTA yielded a protein stability index of 2.27.
Work on KRSWEEHVTHWMGQQFNSDDRNTA yielded a protein stability index of 2.1.
In the case of KRSWEEHVTHWMGQMFNSDDRNTA, the protein stability index is reported as 2.17.
In the case of KRSWEEHVTHWMGQYFNSDDRNTA, the protein stability index is reported as 2.79.
In the case of KRSWEEHVTHWMGQKFNSDDRNTA, the protein stability index is reported as 2.85.
For KRSWEEHVTHWMGQAFNSDDRNTA, the protein stability index was 2.95.
KRSWEEHVTHWMGQNFNSDDRNTA showed a protein stability index of 2.48.
